Data published in patent US20230101835A1.

Target: plasma derived C3b (UniProt P01024)
Experiment: cell-based or functional assay

Chain of UniProt P01024 (P01024 749-1663 limits assumed, chain 1 of 2): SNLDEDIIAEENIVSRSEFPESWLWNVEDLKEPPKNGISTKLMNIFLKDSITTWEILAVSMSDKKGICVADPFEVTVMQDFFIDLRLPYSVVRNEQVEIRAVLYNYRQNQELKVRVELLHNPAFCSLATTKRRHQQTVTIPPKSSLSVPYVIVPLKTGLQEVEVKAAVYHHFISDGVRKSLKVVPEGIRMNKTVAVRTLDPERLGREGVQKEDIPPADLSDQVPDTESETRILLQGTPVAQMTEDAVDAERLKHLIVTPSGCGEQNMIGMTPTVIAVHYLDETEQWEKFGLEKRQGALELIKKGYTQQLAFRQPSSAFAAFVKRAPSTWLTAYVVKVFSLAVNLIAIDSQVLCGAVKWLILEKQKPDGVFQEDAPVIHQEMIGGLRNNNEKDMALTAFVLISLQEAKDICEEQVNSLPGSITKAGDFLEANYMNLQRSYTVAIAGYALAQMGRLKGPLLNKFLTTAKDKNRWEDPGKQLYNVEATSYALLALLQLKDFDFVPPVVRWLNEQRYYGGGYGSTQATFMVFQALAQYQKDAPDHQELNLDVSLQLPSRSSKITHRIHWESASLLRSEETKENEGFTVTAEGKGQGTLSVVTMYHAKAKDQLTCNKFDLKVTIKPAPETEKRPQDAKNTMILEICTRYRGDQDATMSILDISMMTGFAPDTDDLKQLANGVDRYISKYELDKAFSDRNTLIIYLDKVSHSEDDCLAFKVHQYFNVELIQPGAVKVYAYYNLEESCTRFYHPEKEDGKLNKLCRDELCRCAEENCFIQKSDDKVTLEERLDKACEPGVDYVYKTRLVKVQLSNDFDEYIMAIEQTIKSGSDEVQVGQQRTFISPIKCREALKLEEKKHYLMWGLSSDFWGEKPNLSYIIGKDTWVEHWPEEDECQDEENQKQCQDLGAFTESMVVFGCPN
Chain of UniProt P01024 (P01024 23-667 limits assumed, chain 2 of 2): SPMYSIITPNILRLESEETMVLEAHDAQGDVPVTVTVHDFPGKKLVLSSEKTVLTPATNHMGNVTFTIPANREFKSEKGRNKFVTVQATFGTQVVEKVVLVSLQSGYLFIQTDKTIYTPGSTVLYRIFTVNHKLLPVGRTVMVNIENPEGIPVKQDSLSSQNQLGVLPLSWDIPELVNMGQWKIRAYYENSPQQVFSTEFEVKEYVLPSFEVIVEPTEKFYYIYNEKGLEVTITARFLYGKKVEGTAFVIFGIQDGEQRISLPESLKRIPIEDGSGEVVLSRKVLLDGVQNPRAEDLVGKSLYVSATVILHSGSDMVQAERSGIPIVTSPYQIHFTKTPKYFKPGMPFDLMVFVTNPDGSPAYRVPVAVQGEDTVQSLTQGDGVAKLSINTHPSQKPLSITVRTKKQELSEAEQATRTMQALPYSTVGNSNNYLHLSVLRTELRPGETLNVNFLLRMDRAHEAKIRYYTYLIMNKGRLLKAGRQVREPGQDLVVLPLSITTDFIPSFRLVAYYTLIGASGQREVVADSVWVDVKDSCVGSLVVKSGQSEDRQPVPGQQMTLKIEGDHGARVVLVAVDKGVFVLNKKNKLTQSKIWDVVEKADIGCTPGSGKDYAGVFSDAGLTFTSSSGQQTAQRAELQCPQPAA

“FH^1-5∧18-20 (from UniProt P08603 19-322; P08603 1046-1231)” was tested. Which fluid phase Factor I cofactor activity: concentration of regulator at which the C3α′ band disappears (complete degradation of C3b), SDS-PAGE did it give?
Its fluid phase Factor I cofactor activity: concentration of regulator at which the C3α′ band disappears (complete degradation of C3b), SDS-PAGE is 200 nM.
